Measurements as given in patent publication US20160002348A1.

Target: properdin-bound C3b (human) (UniProt P27918)
Assay: ELISA, factor B titrated on C3b-coated plates with properdin

human factor B, sequence (P00751 other isoform, or with tags, fused parts or gaps limits assumed): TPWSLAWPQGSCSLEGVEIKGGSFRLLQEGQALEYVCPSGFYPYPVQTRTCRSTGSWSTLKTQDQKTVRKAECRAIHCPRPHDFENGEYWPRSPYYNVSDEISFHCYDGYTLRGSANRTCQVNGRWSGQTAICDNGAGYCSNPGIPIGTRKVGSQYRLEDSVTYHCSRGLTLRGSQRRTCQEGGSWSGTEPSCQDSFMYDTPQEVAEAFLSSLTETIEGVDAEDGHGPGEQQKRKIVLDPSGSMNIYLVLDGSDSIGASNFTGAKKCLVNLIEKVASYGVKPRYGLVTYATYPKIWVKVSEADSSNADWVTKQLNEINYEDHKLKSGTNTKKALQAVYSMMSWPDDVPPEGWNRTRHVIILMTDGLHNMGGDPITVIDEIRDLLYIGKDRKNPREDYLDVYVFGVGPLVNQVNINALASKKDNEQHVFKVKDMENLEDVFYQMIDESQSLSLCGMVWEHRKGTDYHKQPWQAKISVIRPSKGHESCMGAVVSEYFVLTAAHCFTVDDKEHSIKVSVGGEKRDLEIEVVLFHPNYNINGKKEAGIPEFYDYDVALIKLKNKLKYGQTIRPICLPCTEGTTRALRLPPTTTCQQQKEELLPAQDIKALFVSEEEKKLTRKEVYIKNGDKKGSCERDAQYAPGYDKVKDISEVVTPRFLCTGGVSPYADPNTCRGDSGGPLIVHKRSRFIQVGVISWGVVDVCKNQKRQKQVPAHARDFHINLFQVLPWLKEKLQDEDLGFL

Work on “human factor B (from UniProt P00751 26-764) (enzyme)” yielded a Kd of 1.11 nM.
